# Data from patent US20250051445A1.
# Assays:
# [1] = target: α/β TCR/CD3 complex on Jurkat, Clone E6-1 cells (human) (UniProt P07766); experiment: flow cytometry on Jurkat Clone E6-1 cells, Fab titration 10 µg/ml to 10 ng/ml; EC50 of MFI, fold decrease vs TPP-1374
# [2] = target: α/β TCR/CD3 complex on Jurkat, Clone E6-1 cells (human) (UniProt P07766); experiment: flow cytometry on Jurkat Clone E6-1 cells, Fab titration 10 µg/ml to 10 ng/ml; AUC of MFI vs log concentration, gain vs TPP-1374
# Sequence of UniProt P07766 (P07766 23-207, chain 1 of 4): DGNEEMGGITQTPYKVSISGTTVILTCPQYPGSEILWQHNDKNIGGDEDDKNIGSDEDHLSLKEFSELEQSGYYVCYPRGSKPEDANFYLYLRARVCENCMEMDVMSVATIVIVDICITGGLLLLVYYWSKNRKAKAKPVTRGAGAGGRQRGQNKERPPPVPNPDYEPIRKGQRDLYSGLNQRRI
# Sequence of UniProt P07766 (P09693 23-182, chain 2 of 4, further chain): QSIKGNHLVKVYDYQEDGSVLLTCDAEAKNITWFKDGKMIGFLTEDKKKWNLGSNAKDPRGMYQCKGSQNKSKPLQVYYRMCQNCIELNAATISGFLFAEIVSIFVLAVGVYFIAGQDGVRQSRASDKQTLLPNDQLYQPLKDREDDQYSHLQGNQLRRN
# Sequence of UniProt P07766 (P04234 22-171, chain 3 of 4, further chain): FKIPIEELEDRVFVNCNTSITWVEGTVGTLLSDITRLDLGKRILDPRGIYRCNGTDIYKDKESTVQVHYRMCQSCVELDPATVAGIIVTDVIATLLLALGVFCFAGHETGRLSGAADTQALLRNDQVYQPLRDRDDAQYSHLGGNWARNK
# Sequence of UniProt P07766 (P20963 22-164, chain 4 of 4, further chain): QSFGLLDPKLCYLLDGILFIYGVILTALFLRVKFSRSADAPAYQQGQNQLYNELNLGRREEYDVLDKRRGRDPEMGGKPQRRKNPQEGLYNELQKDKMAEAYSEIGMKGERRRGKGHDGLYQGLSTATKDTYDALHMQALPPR
Binder,fold decrease in EC50 [1] [fold],% gain in binding AUC [2] [%]
"TPP-1388 Fab fragment (Fab, V domains shown) VH: EVQLVQSGAEVKKPGASVKVSCKASGYKFTRYVMHWVRQAPGQGLEWMGYINPYNDVTKYAEKFQGRVTLTSDTSTSTAYMELSSLRSEDTAVYYCARGSYYDYEGFVYWGQGTLVTVSS VL: QIQMTQSPSSLSASVGDRVTITCSATSSVSYMHWYQQKPGKAPKRWIYDTSKLASGVPSRFSGSGSGTDYTLTISSLQPEDAATYYCQQWSSNPLTFGGGTKVEIKR",8.1,273
"TPP-1381 Fab fragment (Fab, V domains shown) VH: EVQLVQSGAEVKKPGASVKVSCKASGYKFTSYVMHWVRQAPGQGLEWMGYINPYKDVTKYAEKFQGRVTLTSDTSTSTAYMELSSLRSEDTAVHYCARGSYYDYEGFVYWGQGTLVTVSS VL: QIQMTQSPSSLSASVGDRVTITCSATSSVSYMHWYQQKPGKAPKRWIYDTSKLASGVPSRFSGSGSGTDYTLTISSLQPEDAATYYCQQWSSNPLTFGGGTKVEIKR",8.2,98
"TPP-1387 Fab fragment (Fab, V domains shown) VH: EVQLVQSGAEVKKPGASVKVSCKASGYKFTSYVMHWVRQAPGQGLEWMGYINPYNDVTKYAEKFQGRVTLTSDTSTSTAYMELSSLRSEDTAVYYCARGSYYDYEGFVYWGQGTLVTVSS VL: QIQMTQSPSSLSASVGDRVTITCSATSSVSYMHWYQQKPGKAPKRWIYDTSKLASGVPSRFSGSGSGTDYTLTISSLQPEDAATYYCQQWSSNPLTFGGGTKVEIKR",3.2,14
"TPP-1392 Fab fragment (Fab, V domains shown) VH: EVQLVQSGAEVKKPGASVKVSCKASGYKFTSYVMHWVRQAPGQGLEWMGYINPRNDVTKYAEKFQGRVTLTSDTSTSTAYMELSSLRSEDTAVYYCARGSYYDYEGFVYWGQGTLVTVSS VL: QIQMTQSPSSLSASVGDRVTITCSATSSVSYMHWYQQKPGKAPKRWIYDTSKLARGVPSRFSGSGSGTDYTLTISSLQPEDAATYYCQQWSSNPLTFGGGTKVEIKR",16.6,813
"TPP-1377 Fab fragment (Fab, V domains shown) VH: EVQLVQSGAEVKKPGASVKVSCKASGYKFTKYVMHWVRQAPGQGLEWMGYINPYNDVTKYAEKFQGRVTLTSDTSTSTAYMELSSLRSEDTAVHYCARGSYYDYEGFVYWGQGTLVTVSS VL: QIQMTQSPSSLSASVGDRVTITCSATSSVSYMHWYQQKPGKAPKRWIYDTSKLASGVPSRFSGSGSGTDYTLTISSLQPEDAATYYCQQWSSNPLTFGGGTKVEIKR",4.1,56
"TPP-1379 Fab fragment (Fab, V domains shown) VH: EVQLVQSGAEVKKPGASVKVSCKASGYKFTSYVMHWVRQAPGQGLEWMGYINPKNDVTKYAEKFQGRVTLTSDTSTSTAYMELSSLRSEDTAVHYCARGSYYDYEGFVYWGQGTLVTVSS VL: QIQMTQSPSSLSASVGDRVTITCSATSSVSYMHWYQQKPGKAPKRWIYDTSKLASGVPSRFSGSGSGTDYTLTISSLQPEDAATYYCQQWSSNPLTFGGGTKVEIKR",–,1
"TPP-1382 Fab fragment (Fab, V domains shown) VH: EVQLVQSGAEVKKPGASVKVSCKASGYKFTSYVMHWVRQAPGQGLEWMGYINPYNDVTKYAEKFQGRVTLTSDTSTSTAYMELSSLRSEDTAVHYCARGSYYDYEGFVYWGQGTLVTVSS VL: QIQMTQSPSSLSASVGDRVTITCSATSSVRYMHWYQQKPGKAPKRWIYDTSKLASGVPSRFSGSGSGTDYTLTISSLQPEDAATYYCQQWSSNPLTFGGGTKVEIKR",–,-66
"TPP-1378 Fab fragment (Fab, V domains shown) VH: EVQLVQSGAEVKKPGASVKVSCKASGYKFTSYVMHWVRQAPGQGLEWMGYINPRNDVTKYAEKFQGRVTLTSDTSTSTAYMELSSLRSEDTAVHYCARGSYYDYEGFVYWGQGTLVTVSS VL: QIQMTQSPSSLSASVGDRVTITCSATSSVSYMHWYQQKPGKAPKRWIYDTSKLASGVPSRFSGSGSGTDYTLTISSLQPEDAATYYCQQWSSNPLTFGGGTKVEIKR",–,79
"TPP-1376 Fab fragment (Fab, V domains shown) VH: EVQLVQSGAEVKKPGASVKVSCKASGYKFKSYVMHWVRQAPGQGLEWMGYINPYNDVTKYAEKFQGRVTLTSDTSTSTAYMELSSLRSEDTAVHYCARGSYYDYEGFVYWGQGTLVTVSS VL: QIQMTQSPSSLSASVGDRVTITCSATSSVSYMHWYQQKPGKAPKRWIYDTSKLASGVPSRFSGSGSGTDYTLTISSLQPEDAATYYCQQWSSNPLTFGGGTKVEIKR",2.8,83
"TPP-1393 Fab fragment (Fab, V domains shown) VH: EVQLVQSGAEVKKPGASVKVSCKASGYKFTSYVMHWVRQAPGQGLEWMGYINPYNDVTKYAEKFQGRVTLTSDTSTSTAYMELSSLRSEDTAVYYCARGSYYDYEGFVYWGQGTLVTVSS VL: QIQMTQSPSSLSASVGDRVTITCSATSSVSYMHWYQQKPGKAPKRWIYDTSKLARGVPSRFSGSGSGTDYTLTISSLQPEDAATYYCQQWSSNPLTFGGGTKVEIKR",13.9,226

# Next, values leading:
fold decrease in EC50 [1] [fold],% gain in binding AUC [2] [%],Binder
4.7,245,"TPP-1391 Fab fragment (Fab, V domains shown) VH: EVQLVQSGAEVKKPGASVKVSCKASGYKFTSYVMHWVRQAPGQGLEWMGYINPYRDVTKYAEKFQGRVTLTSDTSTSTAYMELSSLRSEDTAVYYCARGSYYDYEGFVYWGQGTLVTVSS VL: QIQMTQSPSSLSASVGDRVTITCSATSSVSYMHWYQQKPGKAPKRWIYDTSKLASGVPSRFSGSGSGTDYTLTISSLQPEDAATYYCQQWSSNPLTFGGGTKVEIKR"
7.3,380,"TPP-1363 Fab fragment (Fab, V domains shown) VH: EVQLVQSGAEVKKPGASVKVSCKASGYKFTSYVMHWVRQAPGQGLEWMGYINPYKDVTKYAEKFQGRVTLTSDTSTSTAYMELSSLRSEDTAVYYCARGSYYDYEGFVYWGQGTLVTVSS VL: QIQMTQSPSSLSASVGDRVTITCSATSSVSYMHWYQQKPGKAPKRWIYDTSKLASGVPSRFSGSGSGTDYTLTISSLQPEDAATYYCQQWSSNPLTFGGGTKVEIKR"
21.5,246,"TPP-1372 Fab fragment (Fab, V domains shown) VH: EVQLVQSGAEVKKPGASVKVSCKASGYKFTSYVMHWVRQAPGQGLEWMGYINPYKDVTKYAEKFQGRVTLTSDTSTSTAYMELSSLRSEDTAVYYCARGSYYDYEGFVYWGQGTLVTVSS VL: QIQMTQSPSSLSASVGDRVTITCSATSSVSYMHWYQQKPGKAPKRWIYDTSKLARGVPSRFSGSGSGTDYTLTISSLQPEDAATYYCQQWSSNPLTFGGGTKVEIKR"
8.8,220,"TPP-1367 Fab fragment (Fab, V domains shown) VH: EVQLVQSGAEVKKPGASVKVSCKASGYKFTSYVMHWVRQAPGQGLEWMGYINPYNDVTKYAEKFQGRVTLTSDTSTSTAYMELSSLRSEDTAVHYCARGSYYDYEGFVYWGQGTLVTVSS VL: QIQMTQSPSSLSASVGDRVTITCSATSSVSYMHWYQQKPGKAPKRWIYDTSKLARGVPSRFSGSGSGTDYTLTISSLQPEDAATYYCQQWSSNPLTFGGGTKVEIKR"
–,-73,"TPP-1383 Fab fragment (Fab, V domains shown) VH: EVQLVQSGAEVKKPGASVKVSCKASGYKFTSYVMHWVRQAPGQGLEWMGYINPYNDVTKYAEKFQGRVTLTSDTSTSTAYMELSSLRSEDTAVHYCARGSYYDYEGFVYWGQGTLVTVSS VL: QIQMTQSPSSLSASVGDRVTITCSATSSVKYMHWYQQKPGKAPKRWIYDTSKLASGVPSRFSGSGSGTDYTLTISSLQPEDAATYYCQQWSSNPLTFGGGTKVEIKR"
31.8,423,"TPP-1389 Fab fragment (Fab, V domains shown) VH: EVQLVQSGAEVKKPGASVKVSCKASGYKFTRYVMHWVRQAPGQGLEWMGYINPYNDVTKYAEKFQGRVTLTSDTSTSTAYMELSSLRSEDTAVYYCARGSYYDYEGFVYWGQGTLVTVSS VL: QIQMTQSPSSLSASVGDRVTITCSATSSVSYMHWYQQKPGKAPKRWIYDTSKLARGVPSRFSGSGSGTDYTLTISSLQPEDAATYYCQQWSSNPLTFGGGTKVEIKR"
4.1,203,"TPP-1384 Fab fragment (Fab, V domains shown) VH: EVQLVQSGAEVKKPGASVKVSCKASGYKFTSYVMHWVRQAPGQGLEWMGYINPYNDVTKYAEKFQGRVTLTSDTSTSTAYMELSSLRSEDTAVHYCARGSYYDYEGFVYWGQGTLVTVSS VL: QIQMTQSPSSLSASVGDRVTITCSATSSVSYMHWYQQKPGKAPKRWIYDTSKLAKGVPSRFSGSGSGTDYTLTISSLQPEDAATYYCQQWSSNPLTFGGGTKVEIKR"
2.9,18,"TPP-1380 Fab fragment (Fab, V domains shown) VH: EVQLVQSGAEVKKPGASVKVSCKASGYKFTSYVMHWVRQAPGQGLEWMGYINPYRDVTKYAEKFQGRVTLTSDTSTSTAYMELSSLRSEDTAVHYCARGSYYDYEGFVYWGQGTLVTVSS VL: QIQMTQSPSSLSASVGDRVTITCSATSSVSYMHWYQQKPGKAPKRWIYDTSKLASGVPSRFSGSGSGTDYTLTISSLQPEDAATYYCQQWSSNPLTFGGGTKVEIKR"
5.5,270,"TPP-1390 Fab fragment (Fab, V domains shown) VH: EVQLVQSGAEVKKPGASVKVSCKASGYKFTSYVMHWVRQAPGQGLEWMGYINPRNDVTKYAEKFQGRVTLTSDTSTSTAYMELSSLRSEDTAVYYCARGSYYDYEGFVYWGQGTLVTVSS VL: QIQMTQSPSSLSASVGDRVTITCSATSSVSYMHWYQQKPGKAPKRWIYDTSKLASGVPSRFSGSGSGTDYTLTISSLQPEDAATYYCQQWSSNPLTFGGGTKVEIKR"
5.7,144,"TPP-1360 Fab fragment (Fab, V domains shown) VH: EVQLVQSGAEVKKPGASVKVSCKASGYKFTRYVMHWVRQAPGQGLEWMGYINPYNDVTKYAEKFQGRVTLTSDTSTSTAYMELSSLRSEDTAVHYCARGSYYDYEGFVYWGQGTLVTVSS VL: QIQMTQSPSSLSASVGDRVTITCSATSSVSYMHWYQQKPGKAPKRWIYDTSKLASGVPSRFSGSGSGTDYTLTISSLQPEDAATYYCQQWSSNPLTFGGGTKVEIKR"
